# T1: AA9A LPMO from Lentinus similis (LsAA9A), secreted by K. phaffii, His6-tagged
# T1 chain: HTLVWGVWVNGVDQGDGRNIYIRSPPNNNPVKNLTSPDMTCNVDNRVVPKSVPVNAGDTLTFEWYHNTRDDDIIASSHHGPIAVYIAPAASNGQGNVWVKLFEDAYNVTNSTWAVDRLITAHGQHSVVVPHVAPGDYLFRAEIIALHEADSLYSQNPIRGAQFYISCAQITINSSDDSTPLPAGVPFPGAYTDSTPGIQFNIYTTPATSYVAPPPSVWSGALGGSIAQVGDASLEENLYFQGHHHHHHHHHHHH
# T2: AN4702 protein of Aspergillus nidulans (uniprot entry Q5B428), native N-terminally histidine-methylated protein, Q5B428
# T2 chain: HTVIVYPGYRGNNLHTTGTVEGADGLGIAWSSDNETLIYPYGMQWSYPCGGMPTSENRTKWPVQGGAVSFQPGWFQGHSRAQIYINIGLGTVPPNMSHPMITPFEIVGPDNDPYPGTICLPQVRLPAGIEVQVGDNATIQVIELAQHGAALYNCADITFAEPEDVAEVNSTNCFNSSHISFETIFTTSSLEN
# What was measured:
# [1] = target: T1, AA9A LPMO from Lentinus similis …
# [2] = target: T2, AN4702 protein of Aspergillus nidulans …
protein,measurement,setting,value
AN4663 N-terminal histidine methyltransferase (NHMT) from Aspergillus nidulans (protein) MAPFRSIYEKDATKKLVVGAALLVLAAFYSYVFLLTLAPVYGSTPSHIFHGYGVGIAGVAGWFSKDIVDRVSGRKAIYAIPVLAFFLPVVQYFVSQQSSALGNPAGPIFTEVLALYPLVLLSVACAGKLVQAGLNLQRHGDLVAEHIPLLGSYVIYSAGEHLIKAFLSRFIGSTVLLSRAGLQILIAIFYAAAVPSKALLLAIPAFLFSVTSNTHLPLGHTTTALNNIIADDGFALVARQDSTTGYISVLDNLEDGFRVMRCDHSLLGGQWIKKRPNYTPPAVKDPIYAVFTMLEAVRLVETAHGIPRADAGSNALVIGLGIGTTPGALISHGIDTTIVEIDPVVHKYALQYFDLPENHTPIIEDARAFVQRSRNAPQPKQYDYIVHDVFTGGAEPVELFTYEFISGLHALLKDDGVIAINYAGDISLYSTALSIRTIKSIFPTCRLFREAAAPEIGPDFTNMVIFCTKSRGAPITFRDPVPEDFLGSRFRSRYLVPKHEVDAAQFDNVGLEDGPQGHGRRVLVDKEVGRLHKYQDRSALEHWGIMRTVLPDRVWEGW,"methylation stoichiometry of the N-terminal peptide of secreted LsAA9A (targeted MS), Amy signal peptide construct, co-expression in K. phaffii",[1],a methylation stoichiometry on average of 65% of the peptides for the Amy signal peptide
same,"methylation stoichiometry of the N-terminal peptide of secreted LsAA9A (targeted MS), native signal peptide construct, co-expression in K. phaffii",[1],29% for the native signal peptide
same,PRM assay of N-terminal histidine methylation of the AN4702 peptide in A. nidulans knockout strains,[2],"the knockout of the gene [SEQ ID NO.: 1] encoding AN4663 (uniprot entry Q5B467) [SEQ ID NO.: 2] abolished the N-terminal histidine methylation on the monitored peptides and conversely, the unmethylated form was observed"
AN4663 with E340A substitution (strain NID2787) (protein) MAPFRSIYEKDATKKLVVGAALLVLAAFYSYVFLLTLAPVYGSTPSHIFHGYGVGIAGVAGWFSKDIVDRVSGRKAIYAIPVLAFFLPVVQYFVSQQSSALGNPAGPIFTEVLALYPLVLLSVACAGKLVQAGLNLQRHGDLVAEHIPLLGSYVIYSAGEHLIKAFLSRFIGSTVLLSRAGLQILIAIFYAAAVPSKALLLAIPAFLFSVTSNTHLPLGHTTTALNNIIADDGFALVARQDSTTGYISVLDNLEDGFRVMRCDHSLLGGQWIKKRPNYTPPAVKDPIYAVFTMLEAVRLVETAHGIPRADAGSNALVIGLGIGTTPGALISHGIDTTIVAIDPVVHKYALQYFDLPENHTPIIEDARAFVQRSRNAPQPKQYDYIVHDVFTGGAEPVELFTYEFISGLHALLKDDGVIAINYAGDISLYSTALSIRTIKSIFPTCRLFREAAAPEIGPDFTNMVIFCTKSRGAPITFRDPVPEDFLGSRFRSRYLVPKHEVDAAQFDNVGLEDGPQGHGRRVLVDKEVGRLHKYQDRSALEHWGIMRTVLPDRVWEGW,PRM assay of N-terminal histidine methylation in A. nidulans (strain NID2787),[2],Site-directed mutagenesis of this glutamate to an alanine (E340A) lead to a loss of N-terminal histidine methylation generating a similar methylation phenotype to a complete knockout of AN4663
N-terminally mRFP-tagged AN4663 (strain NID2789) (protein) MAPFRSIYEKDATKKLVVGAALLVLAAFYSYVFLLTLAPVYGSTPSHIFHGYGVGIAGVAGWFSKDIVDRVSGRKAIYAIPVLAFFLPVVQYFVSQQSSALGNPAGPIFTEVLALYPLVLLSVACAGKLVQAGLNLQRHGDLVAEHIPLLGSYVIYSAGEHLIKAFLSRFIGSTVLLSRAGLQILIAIFYAAAVPSKALLLAIPAFLFSVTSNTHLPLGHTTTALNNIIADDGFALVARQDSTTGYISVLDNLEDGFRVMRCDHSLLGGQWIKKRPNYTPPAVKDPIYAVFTMLEAVRLVETAHGIPRADAGSNALVIGLGIGTTPGALISHGIDTTIVEIDPVVHKYALQYFDLPENHTPIIEDARAFVQRSRNAPQPKQYDYIVHDVFTGGAEPVELFTYEFISGLHALLKDDGVIAINYAGDISLYSTALSIRTIKSIFPTCRLFREAAAPEIGPDFTNMVIFCTKSRGAPITFRDPVPEDFLGSRFRSRYLVPKHEVDAAQFDNVGLEDGPQGHGRRVLVDKEVGRLHKYQDRSALEHWGIMRTVLPDRVWEGW,PRM assay of N-terminal histidine methylation in A. nidulans (strain NID2789),[2],methylation of LPMOs was stoichiometric for the N-terminally tagged version
C-terminally mRFP-tagged AN4663 (strain NID2794) (protein) MAPFRSIYEKDATKKLVVGAALLVLAAFYSYVFLLTLAPVYGSTPSHIFHGYGVGIAGVAGWFSKDIVDRVSGRKAIYAIPVLAFFLPVVQYFVSQQSSALGNPAGPIFTEVLALYPLVLLSVACAGKLVQAGLNLQRHGDLVAEHIPLLGSYVIYSAGEHLIKAFLSRFIGSTVLLSRAGLQILIAIFYAAAVPSKALLLAIPAFLFSVTSNTHLPLGHTTTALNNIIADDGFALVARQDSTTGYISVLDNLEDGFRVMRCDHSLLGGQWIKKRPNYTPPAVKDPIYAVFTMLEAVRLVETAHGIPRADAGSNALVIGLGIGTTPGALISHGIDTTIVEIDPVVHKYALQYFDLPENHTPIIEDARAFVQRSRNAPQPKQYDYIVHDVFTGGAEPVELFTYEFISGLHALLKDDGVIAINYAGDISLYSTALSIRTIKSIFPTCRLFREAAAPEIGPDFTNMVIFCTKSRGAPITFRDPVPEDFLGSRFRSRYLVPKHEVDAAQFDNVGLEDGPQGHGRRVLVDKEVGRLHKYQDRSALEHWGIMRTVLPDRVWEGW,PRM assay of N-terminal histidine methylation in A. nidulans (strain NID2794),[2],the C-terminal mRFP tagged version was unable to methylate the LPMOs
Truncated variant of AN4663 lacking the transmembrane region (positions 1-224) (protein) LNNIIADDGFALVARQDSTTGYISVLDNLEDGFRVMRCDHSLLGGQWIKKRPNYTPPAVKDPIYAVFTMLEAVRLVETAHGIPRADAGSNALVIGLGIGTTPGALISHGIDTTIVEIDPVVHKYALQYFDLPENHTPIIEDARAFVQRSRNAPQPKQYDYIVHDVFTGGAEPVELFTYEFISGLHALLKDDGVIAINYAGDISLYSTALSIRTIKSIFPTCRLFREAAAPEIGPDFTNMVIFCTKSRGAPITFRDPVPEDFLGSRFRSRYLVPKHEVDAAQFDNVGLEDGPQGHGRRVLVDKEVGRLHKYQDRSALEHWGIMRTVLPDRVWEGW,PRM quantification of methylated and unmethylated N-terminal peptide after truncation of AN4663,[2],the expression of this variant abolished the N-terminal histidine methylation capacity of the enzyme

# Reference: patent publication US20250236850
